Experimental findings from publication doi:10.64898/2025.12.30.697126 are described below.

For orientation: Kd means the concentration at which binding is half-saturated. A low value points to higher affinity.

The target in this assay is SUMO-SRCAP_(521-569) (human). In words: ITC. A general note: In ITC the heat of successive injections is recorded.
SUMO-SRCAP_(521-569) (human), sequence (Q6ZRS2 521-569): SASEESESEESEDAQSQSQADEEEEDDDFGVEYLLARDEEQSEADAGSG

“H2A.Z/H2B dimer, wild type (from UniProt P0C0S5 1-128; P06899 1-126) (complex)” gave an equilibrium dissociation constant (Kd) of 256 nM. In other words, the sub-micromolar range.
